Test results reported in the supplement of paper PMC9233669.
Variants at the floor of the assay were thinned out.

Legend:
biotinyl-Trp-oxazolone = experiment: self-aminoacylation, catalytic enhancement (BWO) (fold over background); higher = more active; k-Seq, kA / k0A0; sequences stand for … in GGGAAUGGAUCCACAUCUACGAAUUC…UUCACUGCAGACUUGACGAAGCUG
Method in brief: (§1)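 Mutagenized RNA pools (0.43 μM; 21-nt variable region) were treated with 2–1250 μM of each biotinyl-aminoacyl-oxazolone. Conditions were 50 μL HEPES/NaCl/KCl/MgCl2/CaCl2 buffer, 5% acetonitrile, pH 6.9–7.0, room temperature, 90 minutes. Catalytic enhancement, the median kA relative to the uncatalyzed rate, was derived from streptavidin capture, qPCR and Illumina sequencing.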

biotinyl-Phe-oxazolone = experiment: self-aminoacylation, catalytic enhancement (BFO) (fold over background); higher = more active; k-Seq, kA / k0A0; sequences stand for … in GGGAAUGGAUCCACAUCUACGAAUUC…UUCACUGCAGACUUGACGAAGCUG
Method in brief: as §1

biotinyl-Met-oxazolone = experiment: self-aminoacylation, catalytic enhancement (BMO) (fold over background); higher = more active; k-Seq, kA / k0A0; sequences stand for … in GGGAAUGGAUCCACAUCUACGAAUUC…UUCACUGCAGACUUGACGAAGCUG
Method in brief: as §1

biotinyl-Ile-oxazolone = experiment: self-aminoacylation, catalytic enhancement (BIO) (fold over background); higher = more active; k-Seq, kA / k0A0; sequences stand for … in GGGAAUGGAUCCACAUCUACGAAUUC…UUCACUGCAGACUUGACGAAGCUG
Method in brief: as §1

biotinyl-Leu-oxazolone = experiment: self-aminoacylation, catalytic enhancement (BLO) (fold over background); higher = more active; k-Seq, kA / k0A0; sequences stand for … in GGGAAUGGAUCCACAUCUACGAAUUC…UUCACUGCAGACUUGACGAAGCUG
Method in brief: as §1

biotinyl-Val-oxazolone = experiment: self-aminoacylation, catalytic enhancement (BVO) (fold over background); higher = more active; k-Seq, kA / k0A0; sequences stand for … in GGGAAUGGAUCCACAUCUACGAAUUC…UUCACUGCAGACUUGACGAAGCUG
Method in brief: as §1

| Sequence | self-aminoacylation (biotinyl-Trp-oxazolone) | self-aminoacylation (biotinyl-Phe-oxazolone) | self-aminoacylation (biotinyl-Met-oxazolone) | self-aminoacylation (biotinyl-Ile-oxazolone) | self-aminoacylation (biotinyl-Leu-oxazolone) | self-aminoacylation (biotinyl-Val-oxazolone) |
| --- | --- | --- | --- | --- | --- | --- |
| CUACUUCAAAAAAUCGGUCCG [Fam1A.1 aminoacylation ribozyme variant] | 1.31 | 1.57 | 0.749 | 0.724 | 0.761 | 0.604 |
| CUACUUCAAAAAAUCGUUCUG [Fam1A.1 aminoacylation ribozyme variant] | 0.581 | 1.03 | 0.564 | 0.605 | 0.57 | 0.613 |
| CUACUUCAAACAAACGGUCGG [Fam1A.1 aminoacylation ribozyme variant] | 0.585 | 0.694 | 0.726 | 1.05 | 0.809 | 0.944 |
| CUACUUCAAACAACCGGUAUG [Fam1A.1 aminoacylation ribozyme variant] | 0.873 | 0.739 | 0.707 | 0.785 | 0.803 | 0.805 |
| CUACUUCAAACAACCGGUCGG [Fam1A.1 aminoacylation ribozyme variant] | 0.808 | 1.17 | 1.05 | 0.978 | 1.24 | 1.08 |
| CUACUUCAAACAACCUGUCUG [Fam1A.1 aminoacylation ribozyme variant] | 0.325 | 0.494 | 0.52 | 0.74 | 0.589 | 0.736 |
| CUACUUCAAACAAGCCGUCUG [Fam1A.1 aminoacylation ribozyme variant] | 0.926 | 0.59 | 0.925 | 0.78 | 0.872 | 0.746 |
| CUACUUCAAACAAGCGGGCUG [Fam1A.1 aminoacylation ribozyme variant] | 1.88 | 0.943 | 1.38 | 1.79 | 1.38 | 1.41 |
| CUACUUCAAACAAGCGGUUUG [Fam1A.1 aminoacylation ribozyme variant] | 0.559 | 0.557 | 0.637 | 0.89 | 0.705 | 0.701 |
| CUACUUCAAACAAGGGGUCUG [Fam1A.1 aminoacylation ribozyme variant] | 0.593 | 0.71 | 0.746 | 0.773 | 0.748 | 0.801 |
| CUACUUCAAACAAUAGGUCUC [Fam1A.1 aminoacylation ribozyme variant] | 0.459 | 1.03 | 0.535 | 0.666 | 0.493 | 0.657 |
| CUACUUCAAACAAUAGGUCUU [Fam1A.1 aminoacylation ribozyme variant] | 0.538 | 0.985 | 0.75 | 0.947 | 0.827 | 0.828 |
| CUACUUCAAACAAUCAGCCUG [Fam1A.1 aminoacylation ribozyme variant] | 9.56 | 21 | 0.824 | 0.99 | 1.01 | 1.17 |
| CUACUUCAAACAAUCAGUCCG [Fam1A.1 aminoacylation ribozyme variant] | 4.05 | 10.8 | 0.753 | 0.632 | 0.623 | 0.783 |
| CUACUUCAAACAAUCAUUCUG [Fam1A.1 aminoacylation ribozyme variant] | 1.55 | 3.72 | 0.488 | 0.616 | 0.513 | 0.577 |
| CUACUUCAAACAAUCCGUCUU [Fam1A.1 aminoacylation ribozyme variant] | 0.691 | 0.785 | 0.764 | 0.814 | 0.802 | 0.862 |
| CUACUUCAAACAAUCGACCUG [Fam1A.1 aminoacylation ribozyme variant] | 0.661 | 1.6 | 0.545 | 0.608 | 0.45 | 0.636 |
| CUACUUCAAACAAUCGAUCGG [Fam1A.1 aminoacylation ribozyme variant] | 0.676 | 0.743 | 0.56 | 0.647 | 0.721 | 0.73 |
| CUACUUCAAACAAUCGAUCUG [Fam1A.1 aminoacylation ribozyme variant] | 1.34 | 3.4 | 0.574 | 0.663 | 0.572 | 0.693 |
| CUACUUCAAACAAUCGCUCCG [Fam1A.1 aminoacylation ribozyme variant] | 1.02 | 1.08 | 0.713 | 0.768 | 0.775 | 0.926 |
| CUACUUCAAACAAUCGGACAG [Fam1A.1 aminoacylation ribozyme variant] | 0.656 | 1.19 | 0.718 | 0.782 | 0.672 | 0.709 |

| Sequence | self-aminoacylation (biotinyl-Trp-oxazolone) | self-aminoacylation (biotinyl-Phe-oxazolone) | self-aminoacylation (biotinyl-Met-oxazolone) | self-aminoacylation (biotinyl-Ile-oxazolone) | self-aminoacylation (biotinyl-Leu-oxazolone) | self-aminoacylation (biotinyl-Val-oxazolone) |
| --- | --- | --- | --- | --- | --- | --- |
| CUACUUCAAACAAUCGGACUU [Fam1A.1 aminoacylation ribozyme variant] | 1.07 | 1.04 | 0.737 | 0.788 | 0.665 | 0.85 |
| CUACUUCAAACAAUCGGAGUG [Fam1A.1 aminoacylation ribozyme variant] | 3.77 | 6.37 | 3.25 | 3.06 | 4.96 | 2.52 |
| CUACUUCAAACAAUCGGCCUA [Fam1A.1 aminoacylation ribozyme variant] | 1.43 | 2.51 | 1.39 | 1.48 | 1.25 | 1.16 |
| CUACUUCAAACAAUCGGGCGG [Fam1A.1 aminoacylation ribozyme variant] | 1.79 | 1.71 | 1.53 | 1.63 | 1.31 | 1.4 |
| CUACUUCAAACAAUCGGUAUC [Fam1A.1 aminoacylation ribozyme variant] | 0.994 | 2.2 | 0.541 | 0.635 | 0.554 | 0.594 |
| CUACUUCAAACAAUCGGUGUA [Fam1A.1 aminoacylation ribozyme variant] | 0.989 | 1.33 | 1.05 | 0.983 | 1.12 | 0.946 |
| CUACUUCAAACAAUCGGUGUC [Fam1A.1 aminoacylation ribozyme variant] | 0.851 | 1.18 | 0.654 | 0.613 | 0.635 | 0.546 |
| CUACUUCAAACAAUCGUUAUG [Fam1A.1 aminoacylation ribozyme variant] | 0.59 | 0.899 | 0.48 | 0.683 | 0.523 | 0.627 |
| CUACUUCAAACAAUCGUUCCG [Fam1A.1 aminoacylation ribozyme variant] | 0.587 | 0.562 | 0.516 | 0.724 | 0.786 | 0.66 |
| CUACUUCAAACAAUCGUUUUG [Fam1A.1 aminoacylation ribozyme variant] | 0.576 | 0.98 | 0.603 | 0.758 | 0.568 | 0.669 |
| CUACUUCAAACAAUCUAUCUG [Fam1A.1 aminoacylation ribozyme variant] | 0.474 | 0.981 | 0.461 | 0.507 | 0.485 | 0.579 |
| CUACUUCAAACAAUCUGUCUU [Fam1A.1 aminoacylation ribozyme variant] | 0.495 | 0.839 | 0.559 | 0.872 | 0.576 | 0.74 |
| CUACUUCAAACAAUCUGUUUG [Fam1A.1 aminoacylation ribozyme variant] | 0.635 | 0.912 | 0.713 | 0.788 | 0.76 | 0.838 |
| CUACUUCAAACAAUGGGUCAG [Fam1A.1 aminoacylation ribozyme variant] | 0.5 | 0.92 | 0.648 | 0.6 | 0.651 | 0.589 |
| CUACUUCAAACAAUGGGUCUA [Fam1A.1 aminoacylation ribozyme variant] | 0.487 | 0.65 | 0.611 | 0.847 | 0.638 | 0.756 |
| CUACUUCAAACAAUGGGUCUC [Fam1A.1 aminoacylation ribozyme variant] | 0.428 | 0.715 | 0.609 | 0.688 | 0.569 | 0.658 |
| CUACUUCAAACAAUUGGACUG [Fam1A.1 aminoacylation ribozyme variant] | 0.443 | 0.671 | 0.633 | 0.709 | 0.664 | 0.641 |
| CUACUUCAAACAAUUGGUUUG [Fam1A.1 aminoacylation ribozyme variant] | 0.708 | 0.803 | 0.676 | 0.757 | 0.721 | 0.7 |
| CUACUUCAAACAAUUGUUCUG [Fam1A.1 aminoacylation ribozyme variant] | 0.367 | 0.673 | 0.633 | 0.619 | 0.611 | 0.636 |
| CUACUUCAAACACGCGGUCUG [Fam1A.1 aminoacylation ribozyme variant] | 1.74 | 0.711 | 1.64 | 1.61 | 1.42 | 1.36 |
| CUACUUCAAACAGUCGCUCUG [Fam1A.1 aminoacylation ribozyme variant] | 1.09 | 1.68 | 1.45 | 1.12 | 1.75 | 1.25 |
